Patent US20030153066A1 (University of California, published 2003)

Biological target: HIV-1 Gag Pr55 (wild-type) (HIV-1, UniProt P03348 1-512, N-terminal myristoylation (reactions with MCoA))
Assay: cell-based or functional assay

B1: WGHP68-Tr1 (other)
chain: MADRLTRIAIVSEDKCKPKKCRQECKKSCPVVKTGKLCIEVSPVAKLAFISEELCIGCGICVKKCPFDAIEIINLPKDLEKDTTHRYGPNTFKLHRLPVPRPGQVLGLVGTNGIGKSTALKVLAGKLKPNLGRFKNPPDWQEILTYFRGSELQNYFTRILEDNLKAIIKPQYVDHIPKAVQGNVGQVLEQKDERDMKNELCVDLELNQVIDRNVGDLSGGELQRFAIAVVAVQSAEIYMFDEPSSYLDVKQRLKAARVIRSLLRSNSYVIVVEHDLSVLDYLSDFICCLYGKPGAYGVVTLPFSVREGINIFLAGFVPTENLRFRDESLTFKIAETQESAEEVATYQRYKYPTMSKTQGNFKLSVVEGEFTDSQIVVM
amount of HIV-1 Gag protein in the medium of co-transfected Cos-1 cells (virion production): 4.7 fold
